Experimental findings from US20220396794, “[…] AGAINST TRANSFERRIN RECEPTOR (TfR)” (APTERNA LIMITED, published 2022) are described below.

The target in data set [1] is T1, Transferrin receptor 1 (hTfR/hTFRC) extracellular domain (Homo sapiens, UniProt P02786 SEQ:89-760). The experiment in a line: SPR; not measurable. The settings on record: tags: N-terminal His6; expressed in HEK293; Sino Biological 11020-H07H; chain copies: 2 (inferred); label: biotin (SPR) or Cy3 (cells). The procedure:
(§1) Surface plasmon resonance-based biosensor assay. The Biacore T100 (GE Healthcare, Uppsala, Sweden) was used to monitor label-free interactions of truncated TR14-hTfR1 in real time. The biotinylated aptamer was coupled to a streptavidin-coated Biacore chip (SensorChip SA, BR-1003-98, General Electric Company) by an injection in binding buffer at a concentration of 25 μg/mL (30 mM Tris-HCl, pH 7.5; 150 mM NaCl; 5 mM MgCl₂) at 10 uL/min. The RNA was refolded by heating to 65° C., followed by cooling to 37° C., before immobilization. To measure binding kinetics, five concentrations of purified hTfR1 protein were injected at a flow rate of 10 uL/min. After binding, the surface was regenerated by injecting 50 mM NaOH at a flow rate of 15 μL/min for 20 s. Data from the control surface were subtracted. BIAevaluation software (GE Healthcare) was used for analysis. The binding data was fit to a 1:1 binding with a mass transfer model to calculate kinetics parameters as previously described (Hernandez et al, 2009; Soontornworajit et al, 2011)

Data set [2] deals with T1, Transferrin receptor 1 (hTfR/hTFRC) …. The experiment in a line: SPR; 30 mM Tris pH 7.5, 150 mM NaCl, 5 mM MgCl2; aptamer immobilised. The settings on record: tags: N-terminal His6; expressed in HEK293; Sino Biological 11020-H07H; chain copies: 2 (inferred); label: biotin (SPR) or Cy3 (cells). The procedure:
as §1

T1 sequence (P02786 89-760): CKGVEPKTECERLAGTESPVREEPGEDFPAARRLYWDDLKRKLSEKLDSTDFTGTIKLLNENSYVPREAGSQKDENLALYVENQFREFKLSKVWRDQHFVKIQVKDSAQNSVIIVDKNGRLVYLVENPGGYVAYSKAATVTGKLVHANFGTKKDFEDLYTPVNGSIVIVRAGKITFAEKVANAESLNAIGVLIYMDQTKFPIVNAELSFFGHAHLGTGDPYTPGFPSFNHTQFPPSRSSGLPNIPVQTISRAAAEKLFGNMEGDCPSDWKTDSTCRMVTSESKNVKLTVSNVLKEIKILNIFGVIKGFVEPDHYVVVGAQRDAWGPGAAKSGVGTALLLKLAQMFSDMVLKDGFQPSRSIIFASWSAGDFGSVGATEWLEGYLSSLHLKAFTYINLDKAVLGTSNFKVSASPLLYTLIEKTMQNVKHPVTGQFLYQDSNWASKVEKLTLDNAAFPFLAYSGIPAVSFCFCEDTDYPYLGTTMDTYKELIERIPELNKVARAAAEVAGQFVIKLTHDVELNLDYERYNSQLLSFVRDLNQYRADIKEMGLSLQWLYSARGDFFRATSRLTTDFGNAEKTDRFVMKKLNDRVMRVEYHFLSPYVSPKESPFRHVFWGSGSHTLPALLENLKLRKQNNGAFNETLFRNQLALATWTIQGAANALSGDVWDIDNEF

As for AAUGCGUUCACGUUUAUUCACAUUUUUGAAUU (ssRNA, 2'-F pyrimidines (rule of the parent selection)) [TR14 ST1-2 (32-nt)], the binding result in data set [1] is recorded as “no binding”. The term Kd denotes a measure of binding affinity in units of concentration. A low value points to a tighter complex. In data set [2], UUUAUUCACAUUUUUGAAUUGA (ssRNA, 2'-F pyrimidines (rule of the parent selection)) [TR14 ST1-3 (22-nt)] registered a Kd of 0.022 nM. As to GCUCAAUGCGUUCACGUUUAUUCACAUUUUUGAAUUGAGC (ssRNA, 2'-F pyrimidines (rule of the parent selection)) [TR14 ST1-1 (40-nt)], in data set [1], the binding result is given as “no binding”. Turning to GGGGCUCAAUGCGUUCACGUUUAUUCACAUUUUUGAAUUGAGCAUG (ssRNA, 2'-F pyrimidines (rule of the parent selection)) [TR14 S1 (46-nt)], the dissociation constant Kd in data set [2] is 1.46 nM.
